Holding throughout (experiment): EMSA
For orientation: In EMSA bound probe runs differently from free probe, usually more slowly.

For series [1], the target named is T1, Rap1-DBD (Saccharomyces cerevisiae, UniProt P11938 360-598).
T1 sequence: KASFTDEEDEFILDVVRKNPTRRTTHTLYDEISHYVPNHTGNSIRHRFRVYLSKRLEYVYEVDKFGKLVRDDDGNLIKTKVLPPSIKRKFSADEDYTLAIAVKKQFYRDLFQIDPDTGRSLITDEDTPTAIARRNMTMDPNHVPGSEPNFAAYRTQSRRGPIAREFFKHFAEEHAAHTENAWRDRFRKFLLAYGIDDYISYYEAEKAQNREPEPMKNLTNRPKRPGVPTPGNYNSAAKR

Series [2] deals with T2, Rap1 BRCT domain (Saccharomyces cerevisiae, UniProt P11938 1-358).
T2 sequence: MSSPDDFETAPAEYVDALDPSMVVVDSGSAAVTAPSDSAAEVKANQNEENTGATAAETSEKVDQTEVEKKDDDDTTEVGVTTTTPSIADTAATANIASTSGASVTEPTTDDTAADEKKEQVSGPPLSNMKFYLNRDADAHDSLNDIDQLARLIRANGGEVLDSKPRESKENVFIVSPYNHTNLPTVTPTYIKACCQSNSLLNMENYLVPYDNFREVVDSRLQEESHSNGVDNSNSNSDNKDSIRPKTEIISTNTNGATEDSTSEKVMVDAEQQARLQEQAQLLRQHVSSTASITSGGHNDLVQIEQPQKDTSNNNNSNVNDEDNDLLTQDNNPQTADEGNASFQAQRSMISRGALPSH

Series [3] deals with T3, Rap1 RCT (C-terminal domain) (Saccharomyces cerevisiae, UniProt P11938 600-827).
T3 sequence: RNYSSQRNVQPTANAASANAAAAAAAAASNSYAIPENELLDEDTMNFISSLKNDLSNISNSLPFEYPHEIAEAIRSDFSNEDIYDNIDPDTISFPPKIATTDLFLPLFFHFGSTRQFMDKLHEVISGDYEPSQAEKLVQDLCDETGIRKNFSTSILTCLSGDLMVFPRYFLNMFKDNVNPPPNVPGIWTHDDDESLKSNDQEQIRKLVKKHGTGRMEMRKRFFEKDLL

Molecule TGGGTGTGTGGGTGTGTGGGTGTGTGGG (structured_DNA) [4-G3 no tail] returned a Kd in series [1] of 22 nM.
For AATTCTGGGTGTGTGGGTGTGTGGGTGTGTGGGTGTGG (structured_DNA) [4-G3], the binding result in series [2] and in series [3] was “no binding” throughout. Also, the Kd in series [1] amounted to 28 nM.
As for TTGGGTGGGTGGGTGGGTT (structured_DNA) [T-loops], the Kd in series [1] turned out to be 45 nM.

One may read the Kd as the free concentration of one partner at which half of the binding sites on the other are occupied at equilibrium, for simple one-to-one binding. A high value points to lower affinity.
